Experimental data taken from PMC6534540.

Target: N-term biotinylated candidalysin (Candida albicans)
Assay: SPR; Biacore T100; N-term biotinylated candidalysin captured (up to 1000 RU) on neutravidin coupled to a CM5 chip, free sites blocked with PEG-biotin; EGFR domains injected at 250, 500, 1000 and 2000 nM at 10 µL/min; HBS-EP buffer (10 mM HEPES pH 7.4, 150 mM NaCl, 3 mM EDTA, 0.005% Surfactant P20); 25 °C; neutravidin-only reference cell

Sequence of N-term biotinylated candidalysin (Candida albicans) (Q07730 62-92): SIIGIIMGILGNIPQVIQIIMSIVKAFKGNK

## EGFR transmembrane portion (domain or fragment)
  SPR signal response: < 50 RU
